Source: patent US20230277628A1, “METHODS FOR PROMOTING ANTI-TUMOR IMMUNE RESPONSE IN A SUBJECT IN NEED THEREOF USING ENCAPSULATED INTERLEUKIN 12” (Spectrum Pharmaceuticals, Inc., priority 2022, published 2023)

B1: rmIL-12: mouse recombinant IL-12, unencapsulated control; 1 µg equivalent to mPCX12 1 mg (protein, UniProt P43431 23-215; P43432 23-335, looked up)
Interleukin-12 subunit alpha: RVIPVSGPARCLSQSRNLLKTTDDMVKTAREKLKHYSCTAEDIDHEDITRDQTSTLKTCLPLELHKNESCLATRETSSTTRGSCLPPQKTSLMMTLCLGSIYEDLKMYQTEFQAINAALQNHNHQQIILDKGMLVAIDELMQSLNHNGETLRQKPPVGEADPYRVKMKLCILLHAFSTRVVTINRVMGYLSSA
Interleukin-12 subunit beta: MWELEKDVYVVEVDWTPDAPGETVNLTCDTPEEDDITWTSDQRHGVIGSGKTLTITVKEFLDAGQYTCHKGGETLSHSHLLLHKKENGIWSTEILKNFKNKTFLKCEAPNYSGRFTCSWLVQRNMDLKFNIKSSSSSPDSRAVTCGMASLSAEKVTLDQRDYEKYSVSCQEDVTCPTAEETLPIELALEARQQNKYENYSTSFFIRDIIKPDPPKNLQMKPLKNSQVEVSWEYPDSWSTPHSYFSLKFFVRIQRKKEKMKETEEGCNQKGAFLVEKTSTEVQCKGGNVCVQAQDRYYNSSCSKWACVPCRVRS

What was measured:
GL-261 glioma cells [1] = test: Survival in the GL-261 orthotopic murine glioma model; assay type: in vivo; details: for # censored mice: n=22, Day 71
Procedure: (§1) In an orthotopic murine glioma model, C57B6 mice were inoculated with 3 × 10^5 GL-261 glioma cells in the frontal lobe via intracranial injection with drug treatment on Day 5. Mice were randomly assigned (n=22/group) to receive a single intratumoral dose of mPCX12 at 0.5, 0.75, and 1 mg, or mrIL-12 1 µg (equivalent to mPCX12 1 mg) or empty shells or vehicle. In addition, lomustine (6 mg/kg, QDx5 i.p.) was also assessed. […] At 1 mg mPCX12, tumor IL-12 and IFNy levels were 2069±631 and 646±8 pg/mg respectively on Day 3. […] At Day 90, 41%, 45%, and 55% of the animals that received doses of 0.5, 0.75 or 1 mg mPCX12, respectively, were alive with median survival >90 days (last day of study).
In a second study, GL-261 inoculated mice (n=22 per group) received a single dose of mPCX12 at 0.5, 0.75, and 1 mg. Control treatment groups were, mrIL-12, 0.5 and 1 µg (equivalent to mPCX12 0.5 and 1 mg) or empty shells (1 mg) or vehicle control intratumoral. In addition, lomustine (6 mg/kg, QDx5 i.p.) was also assessed. Day 71 was the last day of the study. Animals were euthanized when they became moribund.
PCX12 (1 mg) >50% of mice survived to the end of the study (Day 71) and were tumor-free.

GL-261 glioma cells [2] = system: GL-261 glioma cells; set-up: species or system C57B6 mice; details: mouse, in vivo
Procedure: as §1
In the first study, six days post GL-261 inoculation, a single dose of mPCX12 at 0.5, 0.75, and 1 mg was administered to 4 animals per timepoint (TP). Control treatment groups were, mrIL-12 1 µg (equivalent to mPCX12 1 mg) or empty shells. In addition, lomustine (6 mg/kg, QDx5 i.p.) was also assessed. At 3- and 7-days post drug administration, animals were euthanized, serum and tumor IL-12 and IFN-γ levels were determined via ELISA.
Low levels of IL-12 and IFN-γ observed in the systemic circulation of mPCX12 and mrIL-12 groups. FIGS. 1A-D: All values expressed as Mean +/- SEM; n=4 per timepoint; ND: Not Detected.

Row | Molecule | % alive at 71 Days Post Treatment (GL-261 glioma cells [1]; Lomustine 6 mg/kg QDx5 i.p.) | # censored mice (GL-261 glioma cells [1]; Lomustine 6 mg/kg QDx5 i.p.) | Median survival (GL-261 glioma cells [1]; Lomustine 6 mg/kg QDx5 i.p., study end Day 71) | Median survival (GL-261 glioma cells [1]; lomustine 6 mg/kg QDx5 i.p., text b126 (last day of study Day 90)) | IL-12 and IFNγ in the systemic circulation (GL-261 glioma cells [2]) | tumor IL-12 persistence by Day 7 (GL-261 glioma cells [2]) | Median survival (GL-261 glioma cells [1]; mrIL-12 1 µg intratumoral, text b126 (last day of study Day 90)) | % alive at 71 Days Post Treatment (GL-261 glioma cells [1]; rmIL-12 0.5 µg) | Median survival (GL-261 glioma cells [1]; rmIL-12 0.5 µg intratumoral, study end Day 71) | # censored mice (GL-261 glioma cells [1]; rmIL-12 0.5 µg) | % alive at 71 Days Post Treatment (GL-261 glioma cells [1]; rmIL-12 1 µg) | Median survival (GL-261 glioma cells [1]; rmIL-12 1 µg intratumoral, study end Day 71) | # censored mice (GL-261 glioma cells [1]; rmIL-12 1 µg)
1 | O=NN(CCCl)C(=O)NC1CCCCC1 [Lomustine, lomustine, reference compound] | 18% | 4 | 38 days | 20 days |  |  |  |  |  |  |  |  | 
2 | B1 |  |  |  |  | Low levels | returned to baseline | 37 days | 45% | 38 days | 10 | 41% | 37 days | 9
